Test results published in the RNAGym collection of RNA variant scans (doi:10.1073/pnas.2313332121).
Fewer inactive variants are shown than the library holds.

B1: TPR 5TU (parent)
chain: GGAUCUUCUCGAUCUAACAAAAAAGACAAAUCUGCCACAAAGCUUGAGAGCAUCUUCGGAUGCAGAGGCGGCAGCCUUCGGUGGCGCGAUAGCGCCAACGUUCUCAACUAUGACACGCAAAACGCGUGCUCCGUUGAAUGGAGUUUAUCAUG

Variants of: B1
Test: polymerase ribozyme fitness, log enrichment relative to wild type (log ratio); higher = more active; in vitro selection for triplet polymerase activity
Procedure, shortened: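 After PCR construction and transcription, each subunit's mutant library from a heterodimeric triplet polymerase ribozyme was annealed with a biotinylated primer, the partner subunit and triplets. Incubation was frozen, at −7 °C, and extended constructs were gel-excised, bound to streptavidin beads and amplified by RT-PCR, in one selection round done in triplicate. Fitness is the logarithm of a genotype's enrichment divided by that of the wild type, from inverse-variance-weighted replicate averages of Illumina-sequenced inputs and outputs. The base of the logarithm is 2, and genotypes needed ≥10 input reads and ≥1 read per output.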

Row | Variant | polymerase ribozyme fitness (log ratio)
1 | G11A A23U A39U U53G C54U C93U A122U A142G | ≤ -4.2
2 | G11A U44A A52G C75U C76U G92C C149G | ≤ -4.2
3 | C10U G11A A19U U55A C75G G83U | ≤ -4.2
4 | C10A C76G G81A G86U A137U | ≤ -4.2
5 | C10U A64C A89C G117C A137C | ≤ -4.2
6 | G11C A41C A66C C85U A122U G140U | ≤ -4.2
7 | G11C C14G A26U C105G U134G | ≤ -4.2
8 | C10G A20U C35A C85G A142C | ≤ -4.2
9 | C10U C75U G84A U145A | -4.08
10 | C10A G34U C57U C76U C95G C116G | ≤ -4.2
11 | C10G C36G A47U G65U C79G C93U C99G G126C U144C U148C | ≤ -4.2
12 | G11A A24G A41U C51A G59A G80A G84U U90A | ≤ -4.2
13 | C10G U33A C69A C96G | ≤ -4.2
14 | C10U U55A C72U | -3.95
15 | C10U U15A A23U C32A C51U U55G U111G | ≤ -4.2
16 | G11A A23U U53A G92U C108U A142U | ≤ -4.2
17 | C10U C85G | -3.57
18 | C10U C85A | -3.35
19 | C10U G11U A30U C76A A119U A120C A137U | ≤ -4.2
20 | C10U A16C A39C G50U U56A G67C G94C C108U | ≤ -4.2
21 | G11A A17G C43U G94U A122G G141U | ≤ -4.2

Row | Variant | polymerase ribozyme fitness (log ratio)
22 | G11A C114G G124U | -4.03
23 | C10G A26U A28C C87A G88U A91C U145C | ≤ -4.2
24 | C10U A19U A23U C57U G58C C75U U78G C95U C105U | ≤ -4.2
25 | C10U A52C C87U G88A A122U C123G | ≤ -4.2
26 | G11A C14G A66U C87A A106U G143C | ≤ -4.2
27 | C10U C32A C51G A106G A142C U148A | ≤ -4.2
28 | C10A C35U A97U | ≤ -4.2
29 | C10U G50U C95U | -3.16
30 | C10U A19C U45G C72G U90C U135G | ≤ -4.2
31 | C10U C51G U53A U90G | ≤ -4.2
32 | C10U U13C A17U C76A C105U | ≤ -4.2
33 | C10G U13C G70A U111G U148A | ≤ -4.2
34 | C10U U45A C99A | ≤ -4.2
35 | C10U A24U C35U A91G C93G A98C C118U | ≤ -4.2
36 | C10G G11U C32A C51U C75U C93U C95A | -4.16
37 | C10G C38A G88A A97U | ≤ -4.2
38 | G11A C51U U55A U56G A142C | -3.56
39 | G11A A91G A138U | ≤ -4.2
40 | G11A A39U A97C | -3.26
41 | C10U A37C C75U C95G | ≤ -4.2
42 | C10U A40G C105G | ≤ -4.2

Row | Variant | polymerase ribozyme fitness (log ratio)
43 | C10G U44G U56G C57U A66C C87U A106G A142U | ≤ -4.2
44 | C10G A16U A49C C51G A52U U56A C103G U146A | ≤ -4.2
45 | C10U U53C U55A G86A G88C | ≤ -4.2
46 | C10A G11A A39U C93A G141U | ≤ -4.2
47 | G11A A26C C27G C35U C87A G124A | -4.15
48 | G11A U55A U101G | -1.01
49 | C10U G59A C93U A137G | ≤ -4.2
50 | C10G U109C A137C | ≤ -4.2
51 | C10G A21U A22U U55A G59C A142C | ≤ -4.2
52 | C10A C54A A91C C105A C129A G143C | ≤ -4.2
53 | C10G A29C C54A U55G G88A G92U G124U | ≤ -4.2
54 | G11A A113U | -2.69
55 | G11A C54A | -2.47
56 | G11C A22U A30G A37C A91G C93A A98C C118G | ≤ -4.2
57 | C10U C14G G34U U56G | ≤ -4.2
58 | C10U U53A | -2.96
59 | C10G A89C U148C | ≤ -4.2
60 | G11C A29G A40U C76U C87U | ≤ -4.2
61 | C10U A30U A49C C87U A89G C95G U104C C116U A119U G136C | ≤ -4.2
62 | C10G U13G C87U C125U | ≤ -4.2
63 | G11A A52G U53A C54A G84U G128U C132U | -4.13

Row | Variant | polymerase ribozyme fitness (log ratio)
64 | G11A A26C U90G | ≤ -4.2
65 | C10G C27A A39U C75A G92C A97U A121U | ≤ -4.2
66 | G11A G94U A113C C114U A122C G143U C149U | ≤ -4.2
67 | G11A G50U U82C G86A C116A | -3.47
68 | G11C C14U A37C C93U | ≤ -4.2
69 | C10U A22U C79A G83C A106U | ≤ -4.2
70 | C10G U56A C57U C69U C95A C99U C108U A121U A147G | ≤ -4.2
71 | G11A A37C U56G G83A U145G | -3.73
72 | C10U C32G U145C | -4.16
73 | C10U C54A G88U A115G | ≤ -4.2
74 | C10G A17U A37C G59C C85A | ≤ -4.2
75 | C10U G42C G88U C105G G143U | ≤ -4.2
76 | C10G C35U | -3.4
77 | C10G G68A C79G | ≤ -4.2
78 | C10G G46U G143C U148C | ≤ -4.2
79 | C10U A22U A29G U53G C75A G83A A106U A150C | ≤ -4.2
80 | G11A A19U U61A G84C C85A C103G | ≤ -4.2
81 | C10A C96U G143A | ≤ -4.2
82 | G11C A115C | -2.86
83 | C10A C54A | ≤ -4.2
84 | C10G U13C C85G U109G A115U G140U | ≤ -4.2
